Assay results taken from article PMC3272004.

Key:
[1] = biological target: GST-tagged histone H3 tail (UniProt P61830); test: pull-down; GST-H3 tail or GST-H4 tail immobilised on glutathione beads; in vitro translated [35S]-Gro variants; overnight at 4°C in HEMNK buffer (40 mM HEPES pH 7.5, 5 mM MgCl2, 0.2 mM EDTA, 1 mM DTT, 0.5% NP-40, 0.1 M KCl); autoradiography
[2] = biological target: GST-tagged histone H4 tail (UniProt P02309); test: as above

For “Gro^ΔCR, Gro deletion variant lacking the entire central region (GP, CcN and SP domains), untagged (from UniProt P16371 1-730) (natural protein)”, the fold reduction of binding against Gro^WT [1] was > 4 fold and the fold reduction of binding against Gro^WT [2] was > 4 fold.
